From article PMC10269738

Tests used:
[1] = target: cell-surface annexin A2 of Vero cells (African green monkey (endogenous in Vero))
[2] = target: adhesion G protein-coupled receptor Latrophilin-2 of Vero cells (African green monkey (endogenous in Vero))

For “avian reovirus (ARV) σC protein, strain S1133 (natural protein)”, the virus titer in Vero cells treated with anti-AnxA2 monoclonal antibody, against untreated samples (log units lower) [1] was 2.5 and the virus titer in Vero cells treated with anti-ADGRL2 monoclonal antibody, against untreated samples (log units lower) [2] was 3.
